Experimental data from US20240272171A1 (PHENOMEX, published 2024).
No end group written: not given here. *: point of attachment. FITC = O=C1OC2(c3ccc(O)cc3Oc3cc(O)ccc32)c2ccc(NC(=S)*)cc21

Key:
[1] = target: T1, HLA-A*02:01 MHC Class I complex (recombinant, biotinylated) (human, biotinylated (lysine of a C-terminal BirA recognition sequence)); assay: pMHC on streptavidin beads held in T cell culture media at 37 C for 0-48 h; APC W6/32 staining, flow cytometry MFI fitted to an exponential decay
T1 construct: Bought as a peptide-loaded complex (Biolegend or other maker); also called pHLA (when loaded with peptide)

[2] = target: T1, HLA-A*02:01 MHC Class I complex …; assay: loading into HLA-A*02:01 and catalysed peptide exchange test

Binder | half-life of the complex [1] | binding result [2]
SLYSYFQKV (also called Immunogenic SLC45A2-derived peptide; SLC45A2 antigen peptide) [SLYSYFQKV (SEQ ID NO: 5), SLC45A2-derived peptide] | ~17 h | 
GAATK(FITC)MAAV [EP5 GAATKMAAV (SEQ ID NO: 13), FITC-labelled in-place peptide GAAT{Lys(FITC)}MAAV] |  | binds
SLLPIMWQLY (also called Non-Immunogenic TCL1-derived peptide) [SLLPIMWQLY (SEQ ID NO: 6), TCL1-derived peptide] | ~0.5 h | 
